“Also recorded” adds a separate entry of the source.
Legend:
SMP30 [1] = assay: Immunohistochemical observation of SMP30 in liver cells; format: in vivo; details: wild type mice, 100 mg/kg oral before CCl4, compared with CCl4 alone
Description: (§1) Wild type mice and SMP30 knock-out mice were divided, by 5 of each, into negative control groups (G1, G5), positive control groups (G2, G6), two of experimental group 1 (G3, G7) and two of experimental group 2 (G4, G8) (Table 1). Intraperitoneal administration of olive oil was performed once to negative control mice (G1, G5), while intraperitoneal administration of CCl4 (0.4 ml/kg) was performed once to positive control mice (G2, G6). In the meantime, 100 mg/kg of vitamin C dissolved in tap water was orally administered to experimental group 1 mice (G3, G7) one day before the intraperitoneal administration of CCl4 (0.4 ml/kg). 100 mg/kg of arazyme dissolved in tap water was orally administered to experimental group 2 mice (G4, G8) one day before the intraperitoneal administration of CCl4 (0.4 ml/kg). 24 hours after the administration of CCl4, autopsy was performed in every mouse and samples were taken from each mouse for histopathological test.
To observe SMP30 in liver cells immunohistochemically, paraffin embedded tissues fixed with formalin were cut into 4 μm thick sections, followed by deparaffinization. To inhibit the activity of endogenous peroxidase, the sections were treated in 3% H2O2 for 30 minutes and washed with 0.01 M PBS. To increase antigen expression of the tissues, the sections were treated with 0.01 M citrate buffer, followed by heat treatment using microwave. […]

P-smad3 [2] = assay: Immunohistochemical observation of P-smad3 expression in liver cells; format: in vivo, mice; details: for P-smad3 immune response (immunohistochemistry): 100 mg/kg oral before CCl4, 100 mg/kg
P-smad3 [3] = assay: Expression of P-smad3 in liver cells by immunoblotting; format: in vivo; details: SMP30 knock-out mice; compared with CCl4 alone (G6)
Description: as §1
(§2) The expression of SMP30 in liver cells was investigated by immunoblotting. First, the liver tissues frozen at −70° C. were homogenized in RIPA buffer containing 0.1 mM sodium orthovandate (Na3VO4) and protease inhibitor cocktail tablet (Roche, Mannheim, Germany). […] Protein concentration was measured by Bradford method and each protein sample proceeded onto 10% SDS-polyacrylamide gel at the concentration of 80 µg/well, followed by electrophoresis. […]

rats = assay: Acute toxicity test of arazyme, single oral administration; format: in vivo, Wistar rats; details: female rats, oral 1250, 2500 and 5000 mg/kg once
Description: The following experiments were performed to see if arazyme has acute toxicity in rats.
9-week old SPF (specific pathogen-free) Wistar line rats (Orient, Co., Seoul, Korea) were raised in an animal facility (4 groups, 4 rats per group) where temperature was regulated to 22±3° C., humidity was adjusted to 55±10% and light was also regulated to 12L/12D. The rats were quarantined and adapted for one week before being used. During the whole experiment period, the rats were raised in polycarbonate cages [240 W×390 L×175 H (mm)] by up to 5 per cage. Skin mark using an oil magic pen and individual identification card were used for distinguishment. Feed for laboratory animals (PMI Nutrition International, USA) was provided at any time after being sterilized. Tap water was provided using a water bottle at any time after being purified by a carbon filter.
Arazyme of the invention was dissolved in distilled water for injection at the concentrations of 0, 1250, 2500 and 5000 mg/kg, and 10 ml/kg of each arazyme solution was orally administered once to rats using zonde. After one week-adaptation, the rats were divided into four groups. Different concentrations of arazyme were administered to rats at 10 weeks, and general symptoms were checked. To evaluate toxicity of arazyme to organs, autopsy was performed 24 hours after the administration.
After oral-administration of arazyme to female rats, any symptom according to the administration was investigated and behavior, appearance and biological functions of rats were also observed to evaluate toxicity.

SMP30 [4] = assay: Expression of SMP30 in liver cells by immunoblotting; format: in vivo; details: wild type mice; 100 mg/kg oral before CCl4; compared with CCl4 only (G2)
Description: as §1, §2

liver cells = assay: Histopathological observation on liver cells (H&E) in CCl4-induced acute liver injury; format: in vivo, mice; details: for necrosis in liver cells: 100 mg/kg oral one day before CCl4 0.4 ml/kg i.p., autopsy 24 hours after CCl4
Excerpt: In the present invention, male wild type C57BL/6(WT) at 12 weeks and SMP30 knock-out C57BL/6(KO) mice were used to induce liver injury by CCl4 and then the relation of SMP30 with arazyme was investigated. 10 male and 20 female SMP30 knock-out C57BL/6 mice were distributed from Tokyo Metropolitan Institute of Gerontology, which were then raised in the animal laboratory at Department of Pathology, College of Veterinary Medicine, Kyungpook National University, Korea. Among F1 mice generated by breeding, knock-out mice were selected by tail DNA genotyping by PCR.
Wild type mice were quarantined and adapted for 7 days in the animal laboratory. During the adaptation, every symptom was checked and only healthy animals were selected. Both wild type and SMP30 knock-out mice were 12 weeks old, excluding the difference in age.
Rats were adapted and raised in an animal facility where temperature was regulated to 22±3° C., humidity was adjusted to 55±10% and light was also regulated to 12L/12D (08:00 lights on, 20:00 lights out). The environmental conditions were checked regularly (every three months). After environmental evaluation, no changes in important conditions were recognized. During the whole experiment period, rats were raised in polycarbonate cages [240 W×390 L×175 H (mm)] by up to 5 per cage. Skin mark using an oil magic pen and individual identification card were used for distinguishment. Feed for laboratory animals (PMI Nutrition International, 505 North 4th Street Richmond, in 47374, USA) was provided at any time after being sterilized by irradiation (13.2 kGy). Tap water was provided using a water bottle at any time after being purified by a carbon filter. Carbon tetrachloride was diluted in olive oil at the concentration of 0.4 ml/kg and administered to […] once to induce liver injury. 24 hours after the administration, autopsy was performed.
as §1, with “24 hours after the administration of CCl4, autopsy was performed in every mouse and samples were taken from each mouse for histopathological test.” left out

[5] = autopsy 24 hours after administration

B1: arazyme: novel protease produced by Aranicola proteolyticus HY-3 (KCTC 0268BP); 51.5 kDa monomer; polypeptide sequence SEQ ID NO: 1 (protein, listed as Aranicola proteolyticus)
chain: MQSTKKAIEITESSLAAASSAYNAVDDLLHYHERGNGIQVNGKDSFSTEQAGLFITRENQTWNGYKVFGQPVKLTFSFPDYKFSSTNVAGDTGLSKFSAEQQQQAKLSLQSWSDVANITFTEVGAGQKANITFGNYSQDRPGHYDYDTQAYAFLPNTIYQGQNLGGQTWYNVNQSNVKHPASEDYGRQTFTHEIGHALGLSHPGDYNAGEGNPTYRDASYAEDTREFSLMSYWSETNTGGDNGGHYAAAPLLDDISAIQHLYGANQTTRTGDTVYGFNSNTGRDFLSTTSNPQKVIFAAWDAGGNDTFDFSGYTANQRINLNEKSFSDVGGLKGNVSIAAGVTIENAIGGSGNDVIVGNAANNVLKGGAGNDVLFGGGGADELWGGAGKDTFVFSAVSDSAPGASDWIKDFQKGIDKIDLSFFNQGAQGGDQIHFVDHFSGAAGEALLSYNASNNVSDLALNIGGHQAPDILVKIVGQVDVATDFIV
modifications: BINDING (192)..(192) Zn binding site
SMP30 [1]
  SMP30 expression (immunohistochemistry): higher; also recorded: more strongly expressed
P-smad3 [2]; G4, G8 versus G3, G7, wild type and SMP30 knock-out mice
  P-smad3 expression, arazyme groups compared with vitamin C groups: lower
P-smad3 [2]; SMP30 knock-out mice, G6, G7 compared with G8
  P-smad3 immune response (immunohistochemistry): strongly detected in the groups treated with CCl4 alone or together with vitamin C (G6, G7), compared with the group (G8) treated with arazyme
P-smad3 [2]; wild type mice, compared with CCl4 only (G2)
  P-smad3 immune response (immunohistochemistry): strong immune response against P-smad3 was detected in group 2 (G2) treated with CCl4 only, compared with the groups (G3, G4) treated with vitamin C and arazyme; also recorded: strongly observed in CCl4 treated group (G2), compared with the groups treated with vitamin C and arazyme (G3, G4)
P-smad3 [3]
  P-smad3 expression (immunoblotting): inhibited
rats
  appearance (hair coat, periocular region, ears, genitalia, limbs, tail): no changes
  biological functions (respiration, salivation, feces, emesis): no abnormal symptoms were found
  symptoms in relation to motion, walking, temper and convulsions: no specific symptoms
rats; [5]
  autopsy with naked eyes, organs: did not cause any abnormal symptom or disorder in every organ
  microscopic observation of organs (liver, heart, lung, spleen): No pathological changes were observed
rats; autopsy 24 hours after administration, listed as Arazyme
  autopsy with naked eyes, organs: no abnormal symptoms were observed
SMP30 [4]
  SMP30 expression (immunoblotting): high
Liver cells; SMP30 knock-out C57BL/6 mice
  necrosis in liver cells: significantly inhibited
Liver cells; arazyme treated group, CCl4 liver injury
  injury in liver cells around central vein region: only weak injury
Liver cells; wild type C57BL/6 mice
  necrosis in liver cells: significantly inhibited
Liver cells; wild type and SMP30 knock-out mice with acute liver injury
  apoptosis of liver cells, histological observation: inhibition of apoptosis of liver cells was observed

Source: US8367060B2, “Pharmaceutical composition containing arazyme for the prevention of liver dysfunction” (Insect Biotech Co., Ltd., priority 2006, dated 2013)
